The values that follow come from PMC3220277 (Biochemistry, 2011).

Some targets named below: wild-type human S100A4 (human, UniProt P26447 1-101); C3R/C86S S100A4 (human, UniProt P26447 1-101, C3R | C86S); C81A S100A4 (human, UniProt P26447 1-101, C81A); C81S S100A4 (human, UniProt P26447 1-101, C81S).
Holding throughout (experiment): fluorescence polarisation

One may read the Kd as the concentration at which binding is half-saturated. A low value points to higher affinity.

C81A S100A4, sequence (P26447 whole entry C81A, one chain of several): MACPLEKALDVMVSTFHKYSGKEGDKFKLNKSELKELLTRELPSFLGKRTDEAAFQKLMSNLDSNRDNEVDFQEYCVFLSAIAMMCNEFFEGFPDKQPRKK
C3R/C86S S100A4, sequence (P26447 whole entry C3R/C86S, one chain of several): as the sequence (P26447 whole entry C81A, one chain of several) above, with C3R, A81C, C86S counted along it
C81S S100A4, sequence (P26447 whole entry C81S, one chain of several): as the sequence (P26447 whole entry C81A, one chain of several) above, with A81S counted along it
wild-type human S100A4, sequence (P26447 whole entry, one chain of several): as the sequence (P26447 whole entry C81A, one chain of several) above, with A81C counted along it

B1: FITC-Ahx-DAMNREVSSLKNKLRR-OH peptide (FITC-MIIA^1908−1923) (peptide)
peptide: DAMNREVSSLKNKLRR
HELM: PEPTIDE1{[O=C1OC2(c3ccc(O)cc3Oc3cc(O)ccc32)c2ccc(NC(=S)[*:2])cc21].[O=C(CCCCCN[*:1])[*:2]].D.A.M.N.R.E.V.S.S.L.K.N.K.L.R.R}$$$$V2.0
SMILES: CSCC[C@H](NC(=O)[C@H](C)NC(=O)[C@H](CC(=O)O)NC(=O)CCCCCNC(=S)Nc1ccc2c(c1)C(=O)OC21c2ccc(O)cc2Oc2cc(O)ccc21)C(=O)N[C@@H](CC(N)=O)C(=O)N[C@@H](CCCNC(=N)N)C(=O)N[C@@H](CCC(=O)O)C(=O)N[C@H](C(=O)N[C@@H](CO)C(=O)N[C@@H](CO)C(=O)N[C@@H](CC(C)C)C(=O)N[C@@H](CCCCN)C(=O)N[C@@H](CC(N)=O)C(=O)N[C@@H](CCCCN)C(=O)N[C@@H](CC(C)C)C(=O)N[C@@H](CCCNC(=N)N)C(=O)N[C@@H](CCCNC(=N)N)C(=O)O)C(C)C
On to B1, for which the Kd worked out at 2.3 ± 0.3 µM with wild-type human S100A4, 1.4 ± 0.1 µM with C3R/C86S S100A4, 46.6 ± 3.2 µM in the test with C81A S100A4 and 128 ± 15.7 µM with C81S S100A4.
